Test results as given in the Immune Epitope Database (IEDB).

What was measured:
HLA-B*07:02 = experiment: IEDB peptide-MHC binding, purified MHC/direct/fluorescence; filed as Kd, often an IC50 or EC50 that approximates it; ≥ and ≤ were set here for values at or beyond the usual limits of such assays
HLA-A*03:01 = experiment: as above
HLA-A*02:01 [1] = experiment: as above
HLA-B*39:01 [2] = experiment: as above; conditions: source organism: Burkholderia mallei ATCC 23344
HLA-B*15:01 = experiment: as above
HLA-A*69:01 = experiment: as above
HLA-B*51:01 = experiment: as above; conditions: source organism: Burkholderia mallei
HLA-B*38:01 = experiment: as above; conditions: source organism: Burkholderia mallei ATCC 23344
HLA-A*01:01 = experiment: as above
HLA-A*31:01 = experiment: as above
HLA-B*40:01 = experiment: as above; conditions: source organism: Burkholderia mallei
HLA-A*26:01 = experiment: as above
HLA-B*27:05 = experiment: as above
HLA-B*57:01 [3] = experiment: as above
HLA-B*46:01 [4] = experiment: as above
HLA-B*48:01 = experiment: as above
HLA-A*11:01 = experiment: as above
HLA-B*58:01 [5] = experiment: as above
HLA-B*08:02 = experiment: as above; conditions: source organism: Burkholderia mallei ATCC 23344
HLA-B*15:17 = experiment: as above
HLA-B*18:01 = experiment: as above; conditions: source organism: Burkholderia mallei
HLA-B*15:02 [6] = experiment: IEDB peptide-MHC binding, purified MHC/competitive/fluorescence; filed as Kd, often an IC50 or EC50 that approximates it; ≥ and ≤ were set here for values at or beyond the usual limits of such assays; conditions: source organism: Homo sapiens
HLA-B*46:01 [7] = experiment: as above; conditions: source organism: Homo sapiens
HLA-A*02:01 [8] = experiment: IEDB peptide-MHC binding, purified MHC/competitive/radioactivity; filed as Kd, often an IC50 or EC50 that approximates it; ≥ and ≤ were set here for values at or beyond the usual limits of such assays; conditions: source organism: Homo sapiens
HLA-A*02:07 = experiment: as above; conditions: source organism: Homo sapiens
HLA-B*57:01 [9] = experiment: as above; conditions: source organism: Homo sapiens
HLA-B*58:01 [10] = experiment: as above; conditions: source organism: Homo sapiens
HLA-A*29:02 = experiment: as above; conditions: source organism: Homo sapiens
HLA-B*58:01 [11] = experiment: IEDB peptide-MHC binding, cellular MHC/competitive/fluorescence; ≥ and ≤ were set here for values at or beyond the usual limits of such assays; conditions: source organism: Human herpesvirus 4 strain B95-8
HLA-A*02:01 [12] = experiment: IEDB peptide-MHC binding, purified MHC/competitive/fluorescence; filed as Kd, often an IC50 or EC50 that approximates it; ≥ and ≤ were set here for values at or beyond the usual limits of such assays; conditions: source organism: Giardia lamblia ATCC 50803
HLA-A*02:03 = experiment: as above
HLA-A*30:01 = experiment: as above
HLA-B*15:09 [13] = experiment: as above; conditions: source organism: Giardia lamblia ATCC 50803
HLA-B*08:01 = experiment: as above
HLA-B*08:03 = experiment: IEDB peptide-MHC binding, purified MHC/direct/fluorescence; filed as Kd, often an IC50 or EC50 that approximates it; ≥ and ≤ were set here for values at or beyond the usual limits of such assays
HLA-A*68:02 = experiment: as above
HLA-B*15:02 [14] = experiment: as above
HLA-B*15:42 = experiment: IEDB peptide-MHC binding, purified MHC/competitive/fluorescence; filed as Kd, often an IC50 or EC50 that approximates it; ≥ and ≤ were set here for values at or beyond the usual limits of such assays; conditions: source organism: Vibrio vulnificus YJ016
HLA-B*45:06 = experiment: as above; conditions: source organism: Vibrio vulnificus YJ016
HLA-B*39:01 [15] = experiment: as above; conditions: source organism: Vibrio vulnificus YJ016
HLA-A*32:07 = experiment: as above; conditions: source organism: Vibrio vulnificus YJ016
HLA-B*27:20 = experiment: as above; conditions: source organism: Vibrio vulnificus YJ016
HLA-B*40:13 = experiment: as above; conditions: source organism: Vibrio vulnificus YJ016
HLA-B*83:01 = experiment: as above; conditions: source organism: Vibrio vulnificus YJ016
HLA-B*15:09 [16] = experiment: IEDB peptide-MHC binding, purified MHC/direct/fluorescence; filed as Kd, often an IC50 or EC50 that approximates it; ≥ and ≤ were set here for values at or beyond the usual limits of such assays; conditions: source organism: Vibrio vulnificus CMCP6
[17] = source organism: Burkholderia mallei
[18] = source organism: Giardia lamblia ATCC 50803
[19] = source organism: Vibrio vulnificus YJ016
[20] = source organism: Vibrio vulnificus
[21] = source organism: Vibrio vulnificus CMCP6

Work on AVAVARVAA yielded a Kd (HLA-B*07:02; [17]) of 0.217 µM, a Kd (HLA-A*03:01; [17]) of at least 20 µM and a Kd (HLA-A*02:01 [1]; [17]) of at least 20 µM. It also gave a Kd (HLA-B*39:01 [2]) of at least 20 µM, a Kd (HLA-B*15:01; [17]) of 4.21 µM and a Kd (HLA-A*69:01; [17]) of at least 20 µM. For the same sequence, the Kd (HLA-B*51:01) was at least 20 µM, the Kd (HLA-B*38:01) was at least 20 µM and the Kd (HLA-A*01:01; [17]) was at least 20 µM. The Kd (HLA-A*31:01; [17]) was at least 20 µM, the Kd (HLA-B*40:01) was at least 20 µM and the Kd (HLA-A*26:01; source organism: Burkholderia mallei ATCC 23344) was at least 20 µM. It also gave a Kd (HLA-B*27:05; [17]) of at least 20 µM, a Kd (HLA-B*57:01 [3]; [17]) of at least 20 µM and a Kd (HLA-B*46:01 [4]; [17]) of at least 20 µM. The Kd (HLA-B*48:01; [17]) was at least 20 µM, the Kd (HLA-A*11:01; [17]) was at least 20 µM and the Kd (HLA-B*58:01 [5]; [17]) was at least 20 µM. It also gave a Kd (HLA-B*08:02) of at least 20 µM, a Kd (HLA-B*15:17; [17]) of at least 20 µM and a Kd (HLA-B*18:01) of at least 20 µM.

Work on FIKDGSSTY yielded a Kd (HLA-B*15:02 [6]) of 0.0039 µM, a Kd (HLA-B*46:01 [7]) of 0.0167 µM and a Kd (HLA-A*02:01 [8]) of at least 78.1 µM. For the same sequence, the Kd (HLA-A*02:07) was at least 62.7 µM, the Kd (HLA-B*57:01 [9]) was at least 61.3 µM and the Kd (HLA-B*58:01 [10]) was at least 39.8 µM. For the same sequence, the Kd (HLA-A*29:02) was 0.516 µM.

Sequence LSIFDTSLF has an IC50 (HLA-B*58:01 [11]) of 5 µM.

Sequence QLKQRDALF has a Kd (HLA-A*02:01 [12]) of at least 20 µM, a Kd (HLA-A*02:03; [18]) of at least 20 µM and a Kd (HLA-A*30:01; [18]) of at least 20 µM. It also gave a Kd (HLA-B*15:09 [13]) of at least 20 µM, a Kd (HLA-B*08:01; [18]) of 0.135 µM and a Kd (HLA-B*07:02; [18]) of at least 20 µM. It also gave a Kd (HLA-B*08:03; [18]) of 0.17 µM, a Kd (HLA-B*15:01; [18]) of 0.027 µM and a Kd (HLA-A*69:01; [18]) of at least 20 µM. For the same sequence, the Kd (HLA-A*01:01; [18]) was at least 20 µM, the Kd (HLA-A*31:01; [18]) was at least 20 µM and the Kd (HLA-A*68:02; [18]) was at least 20 µM. For the same sequence, the Kd (HLA-A*26:01; [18]) was at least 20 µM, the Kd (HLA-B*27:05; [18]) was at least 20 µM and the Kd (HLA-B*57:01 [3]; [18]) was 1.46 µM. It also gave a Kd (HLA-B*15:02 [14]; [18]) of 0.029 µM, a Kd (HLA-B*46:01 [4]; [18]) of at least 20 µM and a Kd (HLA-B*48:01; [18]) of at least 20 µM. The Kd (HLA-A*11:01; [18]) was at least 20 µM, the Kd (HLA-B*58:01 [5]; [18]) was at least 20 µM and the Kd (HLA-B*15:17; [18]) was 0.0657 µM.

Work on YQRALHTSI yielded a Kd (HLA-B*15:42) of at least 20 µM, a Kd (HLA-A*02:03; [19]) of 0.0021 µM and a Kd (HLA-B*45:06) of at least 5 µM. The Kd (HLA-B*39:01 [15]) was 0.395 µM, the Kd (HLA-A*32:07) was 0.454 µM and the Kd (HLA-A*30:01; [19]) was 1.12 µM. For the same sequence, the Kd (HLA-B*27:20) was 0.0002 µM, the Kd (HLA-B*40:13) was 0.0608 µM and the Kd (HLA-B*83:01) was at least 5 µM. The Kd (HLA-B*08:01; [19]) was 0.292 µM, the Kd (HLA-B*07:02; [20]) was 7.06 µM and the Kd (HLA-A*03:01; [20]) was at least 20 µM. The Kd (HLA-A*02:01 [1]; [20]) was at least 20 µM, the Kd (HLA-B*08:03; [21]) was 0.055 µM and the Kd (HLA-B*15:01; [20]) was 0.0962 µM. The Kd (HLA-A*69:01; [20]) was at least 20 µM, the Kd (HLA-A*01:01; [20]) was at least 20 µM and the Kd (HLA-A*31:01; [20]) was at least 20 µM. The Kd (HLA-A*68:02; [20]) was at least 20 µM, the Kd (HLA-B*15:09 [16]) was at least 20 µM and the Kd (HLA-A*26:01; [21]) was at least 20 µM. It also gave a Kd (HLA-B*27:05; [20]) of 2.05 µM, a Kd (HLA-B*57:01 [3]; [20]) of at least 20 µM and a Kd (HLA-B*15:02 [14]; [21]) of 0.306 µM. The Kd (HLA-B*46:01 [4]; [20]) was at least 20 µM, the Kd (HLA-B*48:01; [20]) was 0.0586 µM and the Kd (HLA-A*11:01; [20]) was at least 20 µM. The Kd (HLA-B*58:01 [5]; [20]) was at least 20 µM and the Kd (HLA-B*15:17; [20]) was 0.13 µM.
